The target of test [1] is T1, WzxE, the lipid III flippase from Escherichia coli (E. coli K-12 MG1655, UniProt P0AAA7, V inserted between M1 and S2 (worked out from the letters of primer WzxE-F, …)).
T1 construct: His10 removed with TEV protease; Residues of the XhoI site and of the TEV site probably stay at the C-terminus after cleavage (surmise); The same construct purified in DDM only was used in the ELISA; also called chain A; source: E. coli C43(DE3), purified from membranes (DM extraction with DDM/OGNG purification, or DDM only; nickel NTA, TEV cleavage, reverse IMAC, SEC); not shown: His10, …
The test can be described thus: SEC; WzxE incubated with nanobody at molar ratio 1:1.2 WzxE:Nb for 2 h at 4°C; co-elution on size exclusion chromatography in buffer B (25 mM Tris pH 7.5, 150 mM NaCl, 5% glycerol, OGNG, DDM). The following applies: both partners purified. A general note: SEC sorts molecules by how far they enter the pores of the column.

Test [2] deals with T1, WzxE, the lipid III flippase from …. Kind of test: ELISA; biotinylated Nb10-strep II (1.62 µM/well) bound on Streptactin-coated plates; WzxE purified in DDM added at 2.78 µM for 1 h; room temperature, 25 mM Tris pH 7.5, 150 mM NaCl, 0.02% DDM, 0.1% BSA, 0.05% Tween-20. As to conditions: both partners purified. (In an ELISA, binding on a coated surface is turned into a signal by an enzyme label.)

The target is the same in test [3]. The test can be described thus: crystal structure; WzxE-Nb10-Nb7 complex (Nb7 added to pre-formed WzxE-Nb10), with und-PP-GlcNAc or nerol-PP-GlcNAc added, lipidic cubic phase, 20°C; outward-facing conformation (PDB 9G9M, 9G9O). The following applies: both partners purified.
In test [4] the target is T2, WzxE-Nb10 complex (WzxE held on immobilised biotinylated Nb10-strep II) (Escherichia coli K-12 MG1655 (WzxE), V inserted between M1 and S2 (worked out from the letters of primer WzxE-F, …, biotin (EZ-link Sulfo-NHS-LC Biotin kit))).
T2 construct: WzxE, E. coli K-12 MG1655, as the chain of m1 (purified in DDM); as the chain of m4 (Nb10 with strep II tag); A complex of a natural membrane protein and a nanobody, so that no single origin fits; not shown: His10, C-terminal, cleaved; strep II, C-terminal, kept
T2 chain: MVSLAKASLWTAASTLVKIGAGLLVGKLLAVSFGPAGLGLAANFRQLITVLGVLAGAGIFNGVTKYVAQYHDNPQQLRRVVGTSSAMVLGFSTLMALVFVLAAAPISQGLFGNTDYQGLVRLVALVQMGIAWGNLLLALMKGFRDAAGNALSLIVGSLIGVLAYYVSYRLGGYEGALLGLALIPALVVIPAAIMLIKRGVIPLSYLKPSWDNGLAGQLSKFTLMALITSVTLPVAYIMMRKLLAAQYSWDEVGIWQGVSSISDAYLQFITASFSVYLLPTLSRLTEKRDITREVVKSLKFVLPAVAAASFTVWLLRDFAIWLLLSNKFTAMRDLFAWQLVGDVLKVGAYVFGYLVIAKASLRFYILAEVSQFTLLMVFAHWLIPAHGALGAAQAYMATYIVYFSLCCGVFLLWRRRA
Kind of test: ELISA; nanobodies screened on the WzxE-Nb10 complex held on Streptactin-coated plates by biotinylated Nb10-strep II; anti-His HRP antibody, read at 410 nm; room temperature; the step of adding the nanobodies is not described.

The record followed here is article PMC11706664, “Structure of WzxE the lipid III flippase for Enterobacterial Common Antigen polysaccharide” (Open Biology, 2025).

B1: nanobody Nb10 (CA12485) (VHH)
VHH: QVQLVESGGGLVQAGGSLGLSCAASGRTFSNYVMAWFRQAPGKEREFVARISESRGTTDYADSVKGRFTISRDNAKNTIYLQMNSLNPGDTAVYSCAATLPAWTGIIGGRRPGNYPYWGQGTQVTVSS
notes: Raised by llama immunization with WzxE (Nanobody4Instruct), in plasmid pMESy4; also called chain B; source: E. coli WK6 (su-), purified (His-Trap, SEC)
As to B1, in test [1], the binding result was “binds”.

B2: biotinylated Nb10-Strep II tagged protein (VHH)
VHH: QVQLVESGGGLVQAGGSLGLSCAASGRTFSNYVMAWFRQAPGKEREFVARISESRGTTDYADSVKGRFTISRDNAKNTIYLQMNSLNPGDTAVYSCAATLPAWTGIIGGRRPGNYPYWGQGTQVTVSS
notes: as the chain of m2 (Nb10), with the C-terminal hexa-histidine tag exchanged for a strep II tag; source: E. coli WK6 (su-), purified (Strep-tactin beads, SEC), biotinylated; not shown: strep II, C-terminal, kept
Regarding B2, the binding result in test [2] is listed as “binds”.

B3: nanobody Nb7 (CA12482) (VHH)
VHH: QVQLVESGGGLVQAGDSLTLSCAASGRTAYRYGMGWFRQHPGKEREFVASIWWTGTTTYYADSVKGRFTISRDDVKNMVYLQMNSLKPEDTAVYYCAAKFYGGNSKRPGDYAYWGQGTQVTVSS
notes: Raised by llama immunization with WzxE (Nanobody4Instruct), in plasmid pMESy4; In the ELISA it was probably detected by the anti-His HRP antibody (surmise; the methods leave out the step); also called chain C; source: E. coli WK6 (su-), purified (His-Trap, SEC)
As to B3, the binding result in test [3] and in test [4] was “binds” each time.
